From the domain aggregation screens of Martell et al. (2025)

Test: soluble fraction after stress (log2 fold change); higher = more stays soluble; pooled small domains, quantitative proteomics
Details: stress: 75 degC
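Also: 20 min heating vs room temperature control held 20 min.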

HMDGRVQATAEKLRAALDRLARSSVGSPMIERQLTVAALAREARVGRNAIYANHRDILDELIRVRQQRRA
soluble fraction (log2): 0.155

HMDGTAKVAHMLVNELETFNRLKKHEIAYMLHIQPETLSRILNKLTRNGTIEIEKNSVVILNIQELKEIY
soluble fraction (log2): -1.95

HMDGVNRDKIEYRLDDLYYLKGSDAPYTGKVFEEWSGQQRVETNYIDGKLDGLSESWHENGQKASEVNY
soluble fraction (log2): 0.486

HMDHFLRRFQVEGLNLEKLLRLAAEREMDLLQVRRSGRRMTGLVAEKRLPELEELAAQGGWALRLGEY
soluble fraction (log2): -0.843

HMDHSSLIKKLRLERGLSQKKLAQGISQRSTLASFENNATKISYNILIQYLDRMNVTLEEYQFMLDGNNL
soluble fraction (log2): -2.27

HMDHWQSVNSALELLEVSRRTLYDYISRKKLQTKKEGKYRYVWIDDDVIEEIKTSKSAYIEINN
soluble fraction (log2): -2.21

HMDIAATTVKQKIRTLLADEDAARPLSDQKIADALAEDGIDVARRTVAKYREELGIEPSWARKR
soluble fraction (log2): 0.106

HMDIDLGAVEEQAVKGSGPGGQKMNKTSSGVLLRYRLGEELVLVKWTRERQHSLNRFLALRELVDEIEAR
soluble fraction (log2): 0.976

HMDIFFEKIFNILIGYNQNQENLISEKSILNFHLSHKSNSNFEYIPDEKTPKYIWKYLSNYNLLE
soluble fraction (log2): -0.439

HMDIFLPDVKGYDLIPSFRRHLPDIDVIAMTGYNTRALESAVRQQDVLFYMIKPFEASQLKEILEHLVK
soluble fraction (log2): -0.16

HMDIKEIIKNRRIELGLTLKEVATAVGVSEGTVSRWESGNITNMKRNKIAALAKTLQIPPTTI
soluble fraction (log2): -0.618

HMDIKKHISATLKREMEKRGLNFMEFSTELGIPRTTLQGYLKGTSSPQADSLEELADKLGISPAELVSG
soluble fraction (log2): -0.0134

HMDIMLLLYKNIKKRRLEIGMSQEELAQKTGYTSRSSIAKIEKGEVDLQLSKIKLFANALRVSQSELMG
soluble fraction (log2): -3.49

HMDIMTVGERVKKLAEKQGISLRELAKKAELSYNTVYSITRRGSERVAPDTISRLANALGVNVNELT
soluble fraction (log2): -0.263

HMDINEIILKVASEKKTFKTSDVLEALDNNYTKQHVSALISAMVKKGILVKAGSTAKSTYALPENASLL
soluble fraction (log2): -1.26

HMDINIETLNYYVGKAKIPLSELRISVKNIDLFLSGEKQPTFNQLSSIAKKLNIPTGLLLLDESIEV
soluble fraction (log2): -3

HMDIPGITAVKPQAAFYMFPKIDVKKFNIVNDEKFALDLLQDKKILIVQGSGFNWKQPDHFRVV
soluble fraction (log2): 0.177

HMDIRVAHVDDDMSFGEAFAQARSQVGPGGVFEWHGKLYGTYTAEEWASMSPAERSQYQQAVFN
soluble fraction (log2): -0.133

HMDIVLPFSFAKRHGVVLSERQGETELLYLKGLPVRVLAEARRVLRQEFTVRQVEQAVFDKALSESYQN
soluble fraction (log2): -0.957

HMDIYLDDINRKILHLLSQGVKTKSLRDYIDLSMSAIEKRKKHLKDLFLIEDGKDETLLSEARKKGF
soluble fraction (log2): -1.19

HMDKAGWLPARVRLADYPALKQLAWQVQGVDELTPREALGIYERNWRHLDEAALLPRERNLIDALRLAFG
soluble fraction (log2): -0.72

HMDKEQVTFIFRDIDIALRSLDYPIKDIKNTLNIIKSEFSNSKSTELNEQKINFENILKEAISILENND
soluble fraction (log2): -0.855

HMDKFKDVGARIREARKVQKLSQADLAERLQISTSHMSDIENGKKNIGLDIFMRLTEALQVSADWLL
soluble fraction (log2): -0.437

HMDKFTYVVKKEDEQYQIKDILRHNFTFSSRLRKKLKQNNSIFLNGAETVGWATPKEGDIISVRLP
soluble fraction (log2): -0.883

HMDKKEFGKRLKNLRIRNKMSQQAMADSLGYTSRSTINKIEEGINEMSYDKIVRLMELYGLSRPDLGLEPI
soluble fraction (log2): -0.439

HMDKKTMFNEALAKLVSYATAHDNLITMEDVKSFFNGLIDDDSQYKLIYDYLSINKIEIKGFT
soluble fraction (log2): -0.465

HMDKLEKRILDYLLQKSAIDGSTILKISHREMAMDLGTAREVVTRILKKLETGGFVRQGENYLEILK
soluble fraction (log2): -0.518

HMDKPIFTLRENEVLYWASMGKTYAEIATIVGISVRTVKFHMGNVVSKLGVSNARQAIRLGVELDLITPMQ
soluble fraction (log2): -2.03

HMDKSFYETFEKIGHGDFDKGLNHVWQHANDGNGTATLLLSKLFLEFGDLDNFEKYLNISAEQSNPVAMKI
soluble fraction (log2): -0.357

HMDKSNEVLMNHYRKQEINQAKKRLEEEKMSIIQVLQLTNKEVITTDELLEALYISKEQLLDEIINTTQ
soluble fraction (log2): -0.354

HMDKSPVLQLNRDVPAGQQISADDFRTVEIGADGAFRSVPSSDLNAMVGSYAKVRLIAGTLLAREALQSG
soluble fraction (log2): 0.0261

HMDKSRPVLRVGDSGDWVSKLQTALLEFGYRVAVDGVFGEHTKSAVVHFQNGRRLIADGVVGNLTWDALL
soluble fraction (log2): -2.4

HMDKWFPVSSDHKVQVGDYLRTADGLVKVEATHNEYGTFYGKIITAIHDDVVKGETYEYRIDDVQVLA
soluble fraction (log2): -0.00685

HMDLAPLQTVDIAINYAKAAELAAILKSSEGGILSDRGGVTVDERTNTLLIRDTLESIDEARKTI
soluble fraction (log2): 0.224

HMDLATQHAAKVNAAILAARRFEREGSWRQVAAKYSEALQLMPGNEQASRGYQQAMAMLDERD
soluble fraction (log2): -0.0717

HMDLDSGVAVLRTLMSQHNLQTDDFQNEIGGKSMVSMILNGTRKLSKNHIQALSGRFNLSPALFF
soluble fraction (log2): -0.819

HMDLEELSNKMNNVFESLSSDLRDIIIMSDIEGLSYEEISHKINIPIGTVRSRLHRARDLMVRVIKEN
soluble fraction (log2): -0.517

HMDLGEQIIEKLRAAGGFLAITDKSPAEEIYELFATSKKNYKKAVGGLYKKGLLVIEDDGIRLTPAGR
soluble fraction (log2): -0.503

HMDLHERISSVLLGTGKSNDELAQILGVNKNTISAYKNKHGDLKGIVLEGIVKHFDINPVWLLTGSGTR
soluble fraction (log2): -0.577

HMDLKSLEFAIVENVQRHDLNPLEEAQGYKRLIDEFSYDQDKVSKFIGKSRSYITNSLRLLNLPLEVLEF
soluble fraction (log2): 0.125

HMDLKTNSQLINELEKKIKRPFDREIKNYLNKNLSTDRMISNNEIDKIILFYSGNNEIPNIEKISLILNDN
soluble fraction (log2): -0.0499

HMDLPATVPNLEGLTEVTARNKLTVAGLSLGEVKEVESDKEKGTVVGQSIAYGKRVTKGTKVDIEISSGK
soluble fraction (log2): 0.194

HMDLPDTLSMPNALKVLEDNGFPTSKAKLYKMTSQEQIPFMKYGNKLVFSRKALIEWAHKQLV
soluble fraction (log2): -1.94

HMDLPREKRIEIGLTYIYGIGLKTSQKILAATGIDPNTRVKDLDETTVSKLREYIDHNYRVEGELRS
soluble fraction (log2): -1.32

HMDLSLQTFNELKTELTNNKITIDQFSEKINEFDITSDIFEISRELFLDDTLSLEDYLVVIENVLIN
soluble fraction (log2): -0.327

HMDLSQTVQAKALARVNVREGAGTHFKSLGKLKKGELLPVFRVGNSWASIWWKGRVAYVHTDYLRFESA
soluble fraction (log2): -1.98

HMDLTKLFDHDSEYGKSYVFGKITDEMIARAEQTLGYRMPASYIELLKVQNGGMISDELDESWLTTIYGIG
soluble fraction (log2): -0.359

HMDMAYEVVKAFHDLQDYKDVKGGKVYHHYDVGDTYPRQGLDPAPDETRIEELLSSGNAQGVPLIAEV
soluble fraction (log2): 0.112

HMDMNVQNYRGLSLDRAKKLISDLGLKYEVVGTGDSVVKQVPSSGSRMSKENGRIILYTENVEDA
soluble fraction (log2): -0.0826

HMDMPLIGTAIRGWGIISPAQQETLIKMSILTVEDLAAINDEGIKRIGMGGLDLKNKAKAWLLQLK
soluble fraction (log2): -2.2

HMDMRLADLIGRDGITITFMRPSGKVEIDGEIYDAVSDVGLIDKNEEVEVIKFENAQLVVTKKNKN
soluble fraction (log2): 0.102

HMDMSVDQFNQGIRGSELYQQFIHGRGLQQPDGKTREWTDADRNAWRRTLEASGVRIPDGMKIDNAGNLNE
soluble fraction (log2): 0.375

HMDNEIIEEEKITTLMITHNMRDAIKYGNRLIMLNEGRVIFDISGEEKKNLTVQELLEKFEK
soluble fraction (log2): 0.242

HMDNEIMYPIQINGKVRAELFVSTERAMDKQYVLEQAKANEKIQGYLEGNRLVKEIFVPKRIVNLVIAP
soluble fraction (log2): -0.576

HMDNIEIGNRIREIRIKKNISVFELAYRTKTSQSHIYQIEGGSQNMSIELLFKIADTLETDPNTILGV
soluble fraction (log2): -3.97

HMDNIPAHIKAKIINYVNRNYPGAIIKDIERKSNGRYEAEIVYNNREYDLLFDAQGNFISASLDDK
soluble fraction (log2): -0.0583

HMDNNFIQSLYPIAIGISKNQLDPWDLINGWVEYYLKNKEKYINHPNLKAVAVLKMKGLLIDHFRKS
soluble fraction (log2): -3.55

HMDNPKGNLQEAVQAKGNEPIEYRVLNVDGPDHAREFKIAVFIGGKRKGTGVGNSKKKAEEIAAEKAFKRM
soluble fraction (log2): 0.109

HMDNPVPVIITDQNFQPQLWKNVGVPTDTLFHELSAANQRKLENLMKTMIQTPLTDNGKISGYAFYSK
soluble fraction (log2): -0.00686

HMDNREKLRQEFLENLKELQEQNDIPQQEIDRVILDYDGVAEFLEDEGALKRYGGQLVDMTAYRAGAIPS
soluble fraction (log2): 0.0771

HMDNRLFKMLYYLLDKERATAPELAAEFEVSTRTIYRDVEALSSAGIPIYAEPGRNGGIYLLQD
soluble fraction (log2): -2.3

HMDNTSNVEKTLRFIRQRGKVSRKEVETLLGSSKFPAISALNELLAENKIVKTGSGPAVRYSVS
soluble fraction (log2): -0.353

HMDNVINDGMQVRFTGNVDINGTPLKIYDRIYTAEGISDDTVVLMLGNDVYARVYLSDVVPAD
soluble fraction (log2): -0.975

HMDNWLSGLAVEADRMILTQPGEVFDRLSRAFEATLIRRALASTGGRRIEAAHLLGIGRNTITRKIQDLGL
soluble fraction (log2): -2.62

HMDPDARQDAEVWLLDFLSAGPRTAQEIFTAARVEGHTRVTVKRAKATAGIQSVKQDFDGPWVWVLPGSG
soluble fraction (log2): -0.455

HMDPFAYEVKVTDLAAGSSEIRTVYTEQGSFNIPSGMSGNLKIQVRSASMYDEVEPSDWYTIGEEDIN
soluble fraction (log2): 0.0347

HMDPLASLTPREREVLSLMAQGLSNLAVAERLVVSAGAVEKHISSIFTKLDLAPSEHEHRRVLAVLRYVAG
soluble fraction (log2): -2.86

HMDPPISNDARNAINAKLMKFSELHPNEMKKLVEAYKKEFKVSKISPITLARQGEFLSHAISKIDDT
soluble fraction (log2): -0.0671

HMDPQDGTVKFFNGARGFGFITPDGGGADVFVHVSAVERAGLTQLVEGQRVNFQTLPDTKGKGPKAVNLKV
soluble fraction (log2): 0.106

HMDPSDQLYTVPPSAEGLRLDLFLVQHVPHMTRALATQLTGAGQVRVNGRRAKKGDRLPSGAQVRLEQAP
soluble fraction (log2): -0.85

HMDPSHGESRENLDIMRIIDETHLEYPSWGYRKMTDHLRANHGYTINRKRVRRLMRLMDIIALFPG
soluble fraction (log2): -1.33

HMDPSVTGLLTRLGISPQTAQELAGQYEEPYILEKIAIVEAHPEYVKNAAGFVITALQEDWKD
soluble fraction (log2): -0.591

HMDPTHDMHFLVKDQVTGQPLPNMPYRLQLDNGQTLTGRTDALGMTEKISGHSPHIASIEVPY
soluble fraction (log2): 0.117

HMDPVILDINSVKALLGISNKADFMAELSRLVVTEGDKKMIIPLAKEVGIDNVAVYKRNEIENISNYK
soluble fraction (log2): -0.129

HMDQAEDVLSIPVDALMRGNQVYIKDDTVTEQQGPIPAGFKAVEVETGLISDSYVEIKSGLSEGDTVYVAE
soluble fraction (log2): 0.129

HMDQESFGYFHVKYADVKQVADLVQKLNIPAVTWADERTRRLVALGSPATLQRISQVLNMVDL
soluble fraction (log2): -0.781
